Test results taken from patent US20230416363A1 (KADMON, published 2023).
Residue numbers refer to the chain shown, from its start.

B1: 38C11 (antibody, V domains shown)
VH: EVQLLESGGGLVQPGGSLRLSCAASGFTFSSYWMSWVRQAPGKGLEWVSAISGSGGSTYYADSVKGRFTISRDNSKNTLYLQMNSLRAEDTAVYYCASSPLQWVDVWGQGTTVTVSS
VL: DIQMTQSPSSLSASVGDRVTITCRASQSISRWLAWYQQKPGKAPKLLISDASTVQSGVPSRFSGSGSGTDFTLTISSLQPEDFATYYCQQANSFPFTFGPGTKVDIK
B2: 39B3 (antibody, V domains shown)
VH: B1 VH
VL: B1 VL with S30G, R31P, S49Y, T53N, V54L, Q55E, S56T
B3: 32D2 (antibody, V domains shown)
VH: B1 VH
VL: B1 VL with S28G, S49Y, D50E, V54L, N92Y, P100Q
B4: 39G8 (antibody, V domains shown)
VH: B1 VH
VL: B1 VL with S28G, R31P, S49Y, T53K, V54L, Q55E, S56T, N92Y, P100G, D105E
B5: 39B11 (antibody, V domains shown)
VH: B1 VH
VL: B1 VL with R31S, S49Y, D50E, T53R, V54L
B6: 38A11 (antibody, V domains shown)
VH: B1 VH
VL: B1 VL with R31S, S49Y, V54L, A91G
B7: 32D11 (antibody, V domains shown)
VH: B1 VH
VL: B1 VL with S30N, R31I, S49Y, T53N, V54L, Q55E, S56T, A91G, N92Y
B8: 38A10 (antibody, V domains shown)
VH: B1 VH
VL: B1 VL with R31T, S49Y, T53R, V54L, S56N, A91G, N92D

Legend:
hPD-1-Fc [1] = target: T1, hPD-1-Fc (human, UniProt Q15116 25-167); assay: ELISA, hPD-1-Fc coated
T1 construct: domain: IgV domain; also called human PD-1-Fc; not shown: human IgG1 Fc
T1 sequence (Q15116 25-167 limits assumed): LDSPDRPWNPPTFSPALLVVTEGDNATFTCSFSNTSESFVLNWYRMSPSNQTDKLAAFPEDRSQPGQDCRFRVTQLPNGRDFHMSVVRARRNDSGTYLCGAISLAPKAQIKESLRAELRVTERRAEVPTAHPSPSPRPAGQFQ

hPD-1-his [2] = target: T2, hPD-1-his (human, UniProt Q15116 25-167); assay: ELISA, PD-1-his on anti-his
T2 construct: domain: IgV domain; monomer in solution; biotin-labelled where captured by streptavidin; also called biotin-hPD-1-his
T2 sequence (Q15116 other isoform, or with tags, fused parts or gaps limits assumed): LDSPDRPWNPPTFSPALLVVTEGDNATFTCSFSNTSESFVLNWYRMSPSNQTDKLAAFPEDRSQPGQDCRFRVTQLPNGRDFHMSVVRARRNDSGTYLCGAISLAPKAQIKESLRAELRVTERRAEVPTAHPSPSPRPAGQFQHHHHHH

hPD-1-his [3] = target: T2, hPD-1-his; assay: ELISA, PD-1-his on streptavidin
hPD-1-Fc [4] = target: T1, hPD-1-Fc; assay: blocking ELISA, hPD-1 to hPD-L1; set-up: unit not given here
hPD-1-Fc [5] = target: T1, hPD-1-Fc; assay: SPR Biacore T200, PD-1-Fc immobilised
hPD-1-his [6] = target: T2, hPD-1-his; assay: SPR Biacore T200, PD-1-his immobilised

Row | Binder | OD at 10 nM (hPD-1-Fc [1]) [OD] | OD at 10 nM (hPD-1-his [2]) [OD] | OD at 10 nM (hPD-1-his [3]) [OD] | Inhibition at 50 nM (hPD-1-Fc [4]) | Kd (hPD-1-Fc [5]) [nM] | Kd (hPD-1-his [6]) [nM]
1 | B1 | 1.02 | 0.404 | 1.05 | 92.7 |  | 
2 | B2 | 1.08 | 0.617 | 0.963 | 92.9 |  | 
3 | B3 | 0.922 | 0.591 | 0.932 | 91.7 |  | 
4 | B4 | 1.06 | 0.484 | 0.981 | 93.2 | 0.794 | 2.58
5 | B5 | 1.08 | 0.482 | 0.99 | 93.3 |  | 
6 | B6 | 1.03 | 0.447 | 1.07 | 93.2 | 1.02 | 4.93
7 | B7 | 0.952 | 0.602 | 0.935 | 91.9 | 0.554 | 1.44
8 | B8 | 1.06 | 0.552 | 1 | 92.8 | 0.834 | 4.82
